The text below walks through data of PMC4066776, “Molecular determinants of the DprA−RecA interaction for nucleation on ssDNA”.

The series deals with T1, WT DprA (Streptococcus pneumoniae, UniProt Q8DPI7 1-282).
T1 sequence: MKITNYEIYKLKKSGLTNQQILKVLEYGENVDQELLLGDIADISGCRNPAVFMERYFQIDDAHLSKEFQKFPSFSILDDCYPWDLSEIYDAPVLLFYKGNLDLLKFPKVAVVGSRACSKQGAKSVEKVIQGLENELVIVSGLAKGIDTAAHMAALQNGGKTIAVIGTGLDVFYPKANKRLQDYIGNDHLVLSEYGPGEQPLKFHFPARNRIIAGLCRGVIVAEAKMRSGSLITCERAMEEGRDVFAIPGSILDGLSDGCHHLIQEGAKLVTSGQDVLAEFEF
Kind of series: fluorescence anisotropy; Pull-down: 200 mM NaCl, 20 mM Tris-HCl pH 7.5, 20 C, 30 min; anisotropy buffer not in the material. Particulars: protein: recombinant; chain copies: 2; label: fluorescein. (In general: In fluorescence polarisation assays a small probe gives low polarisation when free and higher when bound to something large.)

For TTTTTTTTTTTTTTTTTTTT (ssDNA) [dT20], the binding result is on record as “binds”.
